Reference: paper PMC9706453, “Abscisic acid-responsive transcription factors PavDof2/6/15 mediate fruit softening in sweet cherry”

Assays:
Experiment in all cases: EMSA; Light Shift Chemiluminescent EMSA Kit (Beyotime); buffer, salt, pH and temperature not stated
Conditions in all cases: protein: recombinant; tags: His (pET-30a(+)); label: biotin
[1] = biological target: T1, PavDof2 (Prunus avium (sweet cherry), UniProt A0A6P5T378 1-263)
T1 sequence: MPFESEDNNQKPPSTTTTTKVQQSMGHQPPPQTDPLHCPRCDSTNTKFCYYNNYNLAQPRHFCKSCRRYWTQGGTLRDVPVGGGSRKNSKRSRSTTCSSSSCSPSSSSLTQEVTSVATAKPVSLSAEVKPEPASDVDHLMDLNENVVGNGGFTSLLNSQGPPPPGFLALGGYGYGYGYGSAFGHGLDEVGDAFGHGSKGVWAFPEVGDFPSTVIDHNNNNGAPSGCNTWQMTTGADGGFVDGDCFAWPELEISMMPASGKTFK

[2] = biological target: T2, PavDof6 (Prunus avium (sweet cherry), UniProt A0A6P5RUY3 1-310)
T2 sequence: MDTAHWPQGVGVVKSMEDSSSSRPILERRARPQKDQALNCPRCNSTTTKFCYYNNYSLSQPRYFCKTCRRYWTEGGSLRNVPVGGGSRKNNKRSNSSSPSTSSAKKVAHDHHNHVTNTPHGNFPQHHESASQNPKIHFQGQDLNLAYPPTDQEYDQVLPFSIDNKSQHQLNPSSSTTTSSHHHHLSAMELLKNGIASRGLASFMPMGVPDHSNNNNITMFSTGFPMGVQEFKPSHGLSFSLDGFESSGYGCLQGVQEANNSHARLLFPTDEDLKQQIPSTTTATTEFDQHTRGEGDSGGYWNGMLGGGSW

[3] = biological target: T3, PavDof15 (Prunus avium (sweet cherry), UniProt A0A6P5S8Z2 1-327)
T3 sequence: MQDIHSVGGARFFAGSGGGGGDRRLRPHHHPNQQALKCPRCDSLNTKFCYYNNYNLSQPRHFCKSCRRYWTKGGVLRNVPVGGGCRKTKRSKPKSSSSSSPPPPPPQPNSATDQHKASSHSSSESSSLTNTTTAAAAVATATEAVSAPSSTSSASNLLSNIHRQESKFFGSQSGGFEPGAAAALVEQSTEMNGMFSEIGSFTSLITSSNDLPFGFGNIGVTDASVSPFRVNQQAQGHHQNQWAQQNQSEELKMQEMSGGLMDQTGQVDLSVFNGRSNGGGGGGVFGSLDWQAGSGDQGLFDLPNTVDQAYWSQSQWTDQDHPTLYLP

Measured: binding result

B1: PavXTH26 promoter probe (dsDNA)
DNA 1: AACATTCTTTTTGTAAATCAAGTAGTTAAAAGCATTTAC
DNA 2: GTAAATGCTTTTAACTACTTGATTTACAAAAAGAATGTT
binds: all assays above

B2: PavPME44 promoter probe (dsDNA)
DNA 1: CTGCTTTTCTGAAAATTAAAGCAGTTTGGAGAAAAGTCC
DNA 2: GGACTTTTCTCCAAACTGCTTTAATTTTCAGAAAAGCAG
binds: all assays above

B3: PavQRT3 promoter probe (dsDNA)
DNA 1: TTGAAAAGTTAGGAAAAAAGTTT
DNA 2: AAACTTTTTTCCTAACTTTTCAA
binds: all assays above

B4: PavPL18 promoter probe (dsDNA)
DNA 1: CATAAAAAGAAATAAAATGAAAAGAAAAGTGA
DNA 2: TCACTTTTCTTTTCATTTTATTTCTTTTTATG
binds: all assays above

B5: PavXTH31 promoter probe (dsDNA)
DNA 1: TGCTTTTTTTTTTTTAAAGGATT
DNA 2: AATCCTTTAAAAAAAAAAAAGCA
binds: all assays above

B6: PavNCED1 promoter probe (Dof site) (dsDNA)
DNA 1: CTCAAAAGCTAGTTATATGGAAAAAGGGA
DNA 2: TCCCTTTTTCCATATAACTAGCTTTTGAG
binds: all assays above
